Test results: patent publication US20050208610

How the values were obtained:
[1] = system: Apolipoprotein CIII purified from plasma derived from multiple human donors
[2] = system: apolipoprotein CIII fragment corresponding to amino acids 41-79 (SEQ ID NO:4), designated CR001
apolipoprotein CIII fragment corresponding to amino acids 41-79 (SEQ ID NO:4), designated CR001, sequence (chain, as listed by the source): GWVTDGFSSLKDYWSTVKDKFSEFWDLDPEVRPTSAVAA

Apolipoprotein CIII purified from plasma derived from multiple human donors, sequence (chain, as listed by the source): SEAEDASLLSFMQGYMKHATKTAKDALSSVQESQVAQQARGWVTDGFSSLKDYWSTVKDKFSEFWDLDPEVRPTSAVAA

In the case of factor Xa, the “factor Xa activity when tested alone on the chromogenic substrate S-2765” value [1] is reported as “neither apoliproprotein CIII nor the apolipoprotein CIII fragment have any direct inhibitory effect on factor Xa activity” and the “factor Xa activity when tested alone on the chromogenic substrate S-2765” value [2] is reported as “neither apoliproprotein CIII nor the apolipoprotein CIII fragment have any direct inhibitory effect on factor Xa activity”.
